Measured values taken from patent publication US6838446B1, “Vector for expression of GPI-enzyme hybrid” (AstraZeneca AB, priority 1999, dated 2005).

Assays:
[1] = bacterially expressed standard (Sigma C4053); cited from earlier work
[2] = HPLC based CPG2 enzyme activity assay with CPG2 capture ELISA, supernatants of transiently transfected COS 7 cells; assay type: biochemical; settings: for specific activity of unpurified protein in crude supernatant, expressed in presence of tunicamycin / specific activity of unpurified protein in crude supernatant: COS 7 transient plasmid expression; for specific activity of unpurified protein in crude supernatant, expressed in presence of tunicamycin: 10 μg/ml tunicamycin (unglycosylated protein); for specific activity of unpurified protein in crude supernatant: tunicamycin absent, for CPG2 the combined activity of three protein forms (glycosylated and unglycosylated)
Experimental: Transient tranfection of COS 7 cells can be achieved using a LIPOFECTIN™ based procedure. LIPOFECTIN™ Reagent (Gibco BRL Cat. No. 18292-011) is a 1:1 (w/w) liposome formulation of the cationic lipid DOTMA and DOPE in membrane filtered water. It binds spontaneously with DNA to form a lipid-DNA complex (Felgner et al., Proc. Natl. Acad Sci. USA (1987) 84, 7431. COS 7 cells are seeded into a 6 well plate a 2×10^5 cell/2 ml/well, from a subconfluent culture and incubated overnight at 37°, 5% CO2. A LIPOFECTIN™/serum free medium mix is made up containing 120 μl LIPOFECTIN™ plus 480 μl serum free medium and incubated at room temperature for 30 minutes. A DNA/serum free medium mix is prepared by mixing 12 μg DNA with 600 μl serum free medium. The LIPOFECTIN™/serum free medium mix is added to the DNA/serum free medium mix and left at room temperature for 15 mins. The cells are washed once with 2 ml serum free-medium, then 800 μl serum free media added plus 200 μl LIPOFECTIN™/DNA mix/well and incubated for 5 hours at 37°, 5% CO2. The LIPOFECIN™/DNA mix is removed from the cells and normal growth media added after which the cells are incubated for 48-72 hours at 37°, 5% CO2 when the supernatants are harvested.
COS 7 cells can also be transiently transfected in the presence of the glycosylation inhibitor tunicamycin. The transfection procedure is repeated as above, but after incubating for 5 hours at 37°, 5% CO2, 10 μg/ml tunicamycin (Sigma T7765) is added into the normal growth media.
(§1) For the CPG2 capture ELISA, 96 well plates precoated with goat anti-mouse IgG are used (PIERCE REACII-BIND™ 15134 plates). A second layer of mouse monoclonal anti-CPG2 diluted 1:800 in PBS/0.05% TWEEN™/BSA is added by overnight incubation at 4°. In between each binding step the plate is washed 3 times with PBS/0.05% TWEEN™. 100 μl test sample is added per well and doubling dilutions in PBS/0.05%TWEEN™ carried out across the plate. A fourth layer of rabbit polyclonal anti-CPG2 diluted 1:2500 in PBS/0.05% TWEEN™/2% BSA is added followed by a final layer of goat anit-rabbit IgG Horse Radish Peroxidase Labelled Antibody (DAKO PO448) diluted 1:1000 in PBS/0.05% TWEEN™/2% BSA. To detect binding, 100 μl per well of developing solution is added [one capsule of phosphate-citrate buffer (Sigma P4922) dissolved in 100 ml water to which is added one 30 mg tablet o-phenyldiamine dihydrochloride (Sigma P4812)] and the reaction stopped after 5 mins by adding 75 μl 2M H2SO4, and the absorbance read at 490 nm.
To measure CPG2 enzyme activity in cell supernatant samples at HPLC based CPG2 enzyme assay can be used. 125 βl cell supernatant is pulsed in a micro-centrifuge to remove cell debris and 375 μl fresh reaction buffer (PBS/0.2 mM ZnCl2) added. Upon addition of 100 μM methotrexate, a substrate for the CPG2 enzyme, the reaction is incubated at 37° for 1 hour. The reaction is stopped by the addition of 500 μl methanol/0.2% Trifluoroacetio acid. The 1 ml sample is placed in a capped vial and assayed using HPLC. An isocratic separation with a mobile phase containing: 60% Methanol/40%, 60 mM Ammonium formate/0.1% Trifluoroacetic acid is used with an S5SC×column (Hichrom). 60 μl of sample is injected and the absorbance at 300 nm measured over a total run time of 8 mins/sample giving expected retention times for methotrexate and metabolite of 3.9 and 5.6 respectively.
The two plasmids pNG3/RC/CPG2 and pNG3/RC/CPG2(Q3) (which encoded the glycosylatable and Q3 variant secretory forms of the CPG2 protein respectively) were transfected into COS-7 cells using the LIPOFECTIN™ transfection procedure. To confirm that the mutagenesis of CPG2 to CPG2(Q3) had removed all potential glycosylation sites, the two proteins were also expressed in the presence of the glycosylation inhibitor, tunicamycin. After 72 h of expression the cell supernatants were harvested for analysis. […]

[3] = HPLC based CPG2 enzyme activity assay with CPG2 capture ELISA, supernatants of adenovirally infected CHO K1 cells; assay type: biochemical; settings: RAd infected CHO K1 cells, supernatant 48 hours after infection
Experimental: as §1
To measure CPG2 enzyme activity in cell supernatant samples at HPLC based CPG2 enzyme assay can be used. […] 60 μl of sample is injected and the absorbance at 300 nm measured over a total run time of 8 mins/sample giving expected retention times for methotrexate and metabolite of 3.9 and 5.6 respectively. […]

B1: bacterial CPG2: purified, bacterially expressed CPG2 used as a standard (Sigma C4053) (protein, UniProt P06621 23-415, looked up)
Carboxypeptidase G2: ALAQKRDNVLFQAATDEQPAVIKTLEKLVNIETGTGDAEGIAAAGNFLEAELKNLGFTVTRSKSAGLVVGDNIVGKIKGRGGKNLLLMSHMDTVYLKGILAKAPFRVEGDKAYGPGIADDKGGNAVILHTLKLLKEYGVRDYGTITVLFNTDEEKGSFGSRDLIQEEAKLADYVLSFEPTSAGDEKLSLGTSGIAYVQVNITGKASHAGAAPELGVNALVEASDLVLRTMNIDDKAKNLRFNWTIAKAGNVSNIIPASATLNADVRYARNEDFDAAMKTLEERAQQKKLPEADVKVIVTRGRPAFNAGEGGKKLVDKAVAYYKEAGGTLGVEERTGGGTDAAYAALSGKPVIESLGLPGFGYHSDKAEYVDISAIPRRLYMAARLIMDLGAGK
For B1, the “specific activity of purified bacterial CPG2” value [1] is listed as 500 units/mg.

B2: CPG2: carboxypeptidase G2 with kappa light chain secretory leader, unaltered glycosylation sites, expressed from mammalian cells (pNG3/RC/CPG2) (protein, UniProt P06621 23-415, looked up)
Carboxypeptidase G2: ALAQKRDNVLFQAATDEQPAVIKTLEKLVNIETGTGDAEGIAAAGNFLEAELKNLGFTVTRSKSAGLVVGDNIVGKIKGRGGKNLLLMSHMDTVYLKGILAKAPFRVEGDKAYGPGIADDKGGNAVILHTLKLLKEYGVRDYGTITVLFNTDEEKGSFGSRDLIQEEAKLADYVLSFEPTSAGDEKLSLGTSGIAYVQVNITGKASHAGAAPELGVNALVEASDLVLRTMNIDDKAKNLRFNWTIAKAGNVSNIIPASATLNADVRYARNEDFDAAMKTLEERAQQKKLPEADVKVIVTRGRPAFNAGEGGKKLVDKAVAYYKEAGGTLGVEERTGGGTDAAYAALSGKPVIESLGLPGFGYHSDKAEYVDISAIPRRLYMAARLIMDLGAGK
modifications: kappa light chain secretory leader
With B2 the “specific activity of unpurified protein in crude supernatant, expressed in presence of tunicamycin” value [2] was 165-210 units/mg, the “specific activity of unpurified protein in crude supernatant” value [2] was 61-87 units/mg and the “specific activity of virally expressed secretable enzyme” value [3] was 71 units/mg.

B3: CPG2(Q3): CPG2 with asparagine at positions 222, 264 & 272 mutated to glutamine, secreted form (protein, UniProt P06621 23-415, looked up, variant N222Q N264Q N272Q)
Carboxypeptidase G2: ALAQKRDNVLFQAATDEQPAVIKTLEKLVNIETGTGDAEGIAAAGNFLEAELKNLGFTVTRSKSAGLVVGDNIVGKIKGRGGKNLLLMSHMDTVYLKGILAKAPFRVEGDKAYGPGIADDKGGNAVILHTLKLLKEYGVRDYGTITVLFNTDEEKGSFGSRDLIQEEAKLADYVLSFEPTSAGDEKLSLGTSGIAYVQVQITGKASHAGAAPELGVNALVEASDLVLRTMNIDDKAKNLRFQWTIAKAGQVSNIIPASATLNADVRYARNEDFDAAMKTLEERAQQKKLPEADVKVIVTRGRPAFNAGEGGKKLVDKAVAYYKEAGGTLGVEERTGGGTDAAYAALSGKPVIESLGLPGFGYHSDKAEYVDISAIPRRLYMAARLIMDLGAGK
modifications: secreted form
notes: CPG2 with asparagine at positions 222, 264 & 272 mutated to glutamine, secreted form
For B3, the “specific activity of unpurified protein in crude supernatant, expressed in presence of tunicamycin” value [2] was 90-124 units/mg, the “specific activity of unpurified protein in crude supernatant” value [2] was 71-120 units/mg and the “reduction of enzyme activity by mutagenesis of CPG2 to CPG2(Q3)” value ([2]; as printed: compared with bacterial expressed enzyme) was 2 fold. The “specific activity, fold lower than wild type bacterial enzyme” value ([2]; unpurified protein, COS 7 supernatant) was “approximately 5 fold” and the “specific activity of virally expressed secretable enzyme” value [3] was 180 units/mg.
